Reference: the supplement of paper PMC7125110
± gives the standard error. Fewer inactive variants are shown than the library holds.

B1: glmS ribozyme (parent)
chain: AUAAAAGCGCCAGAACUACAGAAAUGUAGUUGACGAGGAGGAGGUUUAUCGAAUUUUCGGCGGAUGCCUCCAAA

What was measured:
Conditions in all cases: with glucosamine-6-phosphate
glucosamine-6-phosphate [1] = variants of: B1; assay: self-cleavage kobs at 40 uM GlcN6P; higher = faster cleavage; RNA array
Method in brief: (§1)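 Tracking of barcoded ribozyme variants used a hybridised Cy3 probe at 37 °C, after in situ transcription by E. coli RNA polymerase on sequenced MiSeq chips. The flowed solution held 40 μM to 10 mM glucosamine-6-phosphate in HEPES/KCl/Mg(OAc)2 buffer, and imaging ran over ~14 h. kobs was taken from exponential decay fits of normalised per-tile medians, and kcat and KM from weighted Michaelis–Menten fits.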

glucosamine-6-phosphate [2] = variants of: B1; assay: self-cleavage kobs at 10000 uM GlcN6P; higher = faster cleavage; RNA array
Method in brief: as §1

glucosamine-6-phosphate [3] = variants of: B1; assay: self-cleavage kobs at 160 uM GlcN6P; higher = faster cleavage; RNA array
Method in brief: as §1

glucosamine-6-phosphate [4] = variants of: B1; assay: self-cleavage kobs at 640 uM GlcN6P; higher = faster cleavage; RNA array
Method in brief: as §1

glucosamine-6-phosphate [5] = variants of: B1; assay: self-cleavage kobs at 2500 uM GlcN6P; higher = faster cleavage; RNA array
Method in brief: as §1

Variant	self-cleavage kobs at 40 uM GlcN6P (glucosamine-6-phosphate [1]) [s⁻¹]	self-cleavage kobs at 10000 uM GlcN6P (glucosamine-6-phosphate [2]) [s⁻¹]	self-cleavage kobs at 160 uM GlcN6P (glucosamine-6-phosphate [3]) [s⁻¹]	self-cleavage kobs at 640 uM GlcN6P (glucosamine-6-phosphate [4]) [s⁻¹]	self-cleavage kobs at 2500 uM GlcN6P (glucosamine-6-phosphate [5]) [s⁻¹]
G40U U56C G59C	< 1e-05	< 1e-05			
A42G G63A	< 1e-05	< 1e-05	< 1e-05	< 1e-05	< 1e-05
A42C A53U	< 1e-05		< 1e-05	< 1e-05	
U45G A64U	< 1e-05	9.64e-05 ± 1.8e-05	< 1e-05		
G41C C67G	< 1e-05	< 1e-05	< 1e-05	< 1e-05	< 1e-05
A42G A52U C70A	< 1e-05		< 1e-05		
A42G C67G	0.000618 ± 0.00013	0.0123 ± 0.0031	0.00112 ± 0.00024	0.00232 ± 0.00045	0.00814 ± 0.0014
G41C C58A	< 1e-05	< 1e-05	< 1e-05		
G41A G62A	< 1e-05	< 1e-05	< 1e-05	< 1e-05	
G44U A48U	< 1e-05		< 1e-05	< 1e-05	< 1e-05
A42C C68G	< 1e-05		< 1e-05	< 1e-05	
G44A C70A	< 1e-05	< 1e-05	< 1e-05		< 1e-05
G44U U57C	< 1e-05	< 1e-05		< 1e-05	< 1e-05
A42C G51C	< 1e-05	< 1e-05	< 1e-05	< 1e-05	
A42C G51U	< 1e-05	< 1e-05	< 1e-05	< 1e-05	
G43C G66A	< 1e-05				
G44C U65C	< 1e-05	< 1e-05	< 1e-05	< 1e-05	
G44C A48C	< 1e-05	< 1e-05	< 1e-05		< 1e-05
G41C G63C	< 1e-05	< 1e-05		< 1e-05	< 1e-05
G41A C61U	< 1e-05	< 1e-05	< 1e-05	< 1e-05	
U45A C70U	0.00112 ± 0.00012	0.0102 ± 0.0018	0.00187 ± 0.00068	0.00199 ± 0.00047	0.0203 ± 0.0092

Variant	self-cleavage kobs at 40 uM GlcN6P (glucosamine-6-phosphate [1]) [s⁻¹]	self-cleavage kobs at 10000 uM GlcN6P (glucosamine-6-phosphate [2]) [s⁻¹]	self-cleavage kobs at 160 uM GlcN6P (glucosamine-6-phosphate [3]) [s⁻¹]	self-cleavage kobs at 640 uM GlcN6P (glucosamine-6-phosphate [4]) [s⁻¹]	self-cleavage kobs at 2500 uM GlcN6P (glucosamine-6-phosphate [5]) [s⁻¹]
G44C G62C	< 1e-05	< 1e-05	< 1e-05	< 1e-05	< 1e-05
G44C G62A	< 1e-05	< 1e-05	< 1e-05	< 1e-05	< 1e-05
G44C C67U C68U	< 1e-05		< 1e-05		
G41A G43C U49A C50G C58A	< 1e-05				
G41U U49A	< 1e-05	< 1e-05		< 1e-05	
G43U C50U	< 1e-05	< 1e-05	< 1e-05	< 1e-05	< 1e-05
G41C A64C	< 1e-05		< 1e-05	< 1e-05	< 1e-05
U45A C61A	< 1e-05	< 1e-05		< 1e-05	< 1e-05
A42C G66C	< 1e-05	< 1e-05	< 1e-05	< 1e-05	< 1e-05
G41C G43A U46G C68A C70U	< 1e-05				
A42U A53G U56C C71U	< 1e-05				
G43C U57A C70G	< 1e-05			< 1e-05	< 1e-05
G43A G51C U54C C71U	< 1e-05			< 1e-05	< 1e-05
U45G C50U A53U	< 1e-05				
A42G U55G G62C	< 1e-05	< 1e-05	< 1e-05		< 1e-05
G44A C67U	0.000707 ± 7e-05	0.0388 ± 0.0061	0.00265 ± 0.00064	0.00449 ± 0.0011	0.006 ± 0.0018
G44C G60C	< 1e-05	< 1e-05	< 1e-05	< 1e-05	
G41C C58U G59C	< 1e-05				
G44C U45G C58G	< 1e-05				
G44A U47A C71A	< 1e-05	< 1e-05		< 1e-05	< 1e-05
G44C C58U	< 1e-05	< 1e-05	< 1e-05	< 1e-05	< 1e-05

Variant	self-cleavage kobs at 40 uM GlcN6P (glucosamine-6-phosphate [1]) [s⁻¹]	self-cleavage kobs at 10000 uM GlcN6P (glucosamine-6-phosphate [2]) [s⁻¹]	self-cleavage kobs at 160 uM GlcN6P (glucosamine-6-phosphate [3]) [s⁻¹]	self-cleavage kobs at 640 uM GlcN6P (glucosamine-6-phosphate [4]) [s⁻¹]	self-cleavage kobs at 2500 uM GlcN6P (glucosamine-6-phosphate [5]) [s⁻¹]
G41U U46G G59C	< 1e-05	< 1e-05		< 1e-05	< 1e-05
G44C C68A	< 1e-05	< 1e-05	< 1e-05	< 1e-05	< 1e-05
G44A U47C	< 1e-05	< 1e-05	< 1e-05	< 1e-05	< 1e-05
A42G G66A	0.000416 ± 6.5e-05	0.0267 ± 0.0068	0.000862 ± 0.0002	0.00611 ± 0.00079	0.00984 ± 0.0018
G41C C61G	< 1e-05		< 1e-05	< 1e-05	< 1e-05
G41U A42G G44A A48G	< 1e-05			< 1e-05	
G43A G66U	< 1e-05				< 1e-05
G40U G59C G60U C70G	< 1e-05	< 1e-05			
A42C G51A C61U	< 1e-05	< 1e-05	< 1e-05		
G41U G60U	< 1e-05	< 1e-05	< 1e-05	< 1e-05	
G44A G60A	< 1e-05	< 1e-05	< 1e-05	< 1e-05	< 1e-05
G44U C50G A53U G59A C68A	< 1e-05				
G41U C68U C71A	< 1e-05				
A42C G62U	< 1e-05	< 1e-05		< 1e-05	< 1e-05
U45G A52C	< 1e-05				
U45C C50G	< 1e-05	< 1e-05	< 1e-05	< 1e-05	< 1e-05
U45A G60U C68G C70U	< 1e-05				
A42C C50U U69A	< 1e-05	< 1e-05			
G44A U46G U69G	< 1e-05	< 1e-05			
G41A G43U A53G C71G	< 1e-05				< 1e-05
G44A U69A	< 1e-05	< 1e-05	< 1e-05	< 1e-05	< 1e-05

Variant	self-cleavage kobs at 40 uM GlcN6P (glucosamine-6-phosphate [1]) [s⁻¹]	self-cleavage kobs at 10000 uM GlcN6P (glucosamine-6-phosphate [2]) [s⁻¹]	self-cleavage kobs at 160 uM GlcN6P (glucosamine-6-phosphate [3]) [s⁻¹]	self-cleavage kobs at 640 uM GlcN6P (glucosamine-6-phosphate [4]) [s⁻¹]	self-cleavage kobs at 2500 uM GlcN6P (glucosamine-6-phosphate [5]) [s⁻¹]
G44A U69G	< 1e-05	< 1e-05		< 1e-05	< 1e-05
U45C U55C	5.77e-05 ± 1.3e-05	0.00272 ± 0.00037			0.00199 ± 0.00054
G41A C68G	< 1e-05	< 1e-05	< 1e-05	< 1e-05	< 1e-05
G44C U69G	< 1e-05	< 1e-05			< 1e-05
U46G U47G C67A	7.27e-05 ± 2e-05	0.0021 ± 0.00039			
U45G G59C	< 1e-05		< 1e-05	< 1e-05	< 1e-05
U45C G63U	< 1e-05	< 1e-05	< 1e-05	< 1e-05	< 1e-05
G41U G66C C68U	< 1e-05		< 1e-05	< 1e-05	< 1e-05
G41C G59A	< 1e-05			< 1e-05	
U46A A48U U57A G60U C67U C68A	< 1e-05				< 1e-05
G44U C58U C71U	< 1e-05	< 1e-05		< 1e-05	< 1e-05
A42G G63A U69G	< 1e-05	< 1e-05			
A42C U49A	< 1e-05		< 1e-05	< 1e-05	< 1e-05
G41U U57G	< 1e-05		< 1e-05	< 1e-05	
G41U C61G	< 1e-05	< 1e-05	< 1e-05	< 1e-05	< 1e-05
G43A C58A	< 1e-05	< 1e-05	< 1e-05	< 1e-05	< 1e-05
A42G U57A G66U	< 1e-05				
U45G A52C U55C C71U	< 1e-05				
G44C G51A A53C	< 1e-05	< 1e-05			
U45A A48C C58U	< 1e-05	< 1e-05			
